# Assay results as given in patent US20240117047A1 (University of California, published 2024).
# Changes are numbered by the printed parent chain.
# B1: UC-102 (antibody, V domains shown)
# VH: DVHLQESGPGLVKPSQSLSVTCTVTGYSITGSYSWNWIRQFPGNKLEWMGYIHSSGTTNYNPSLKSRISFTRDTSKNQLFLQLNSVTTEDTATYYCTRGFAYWGQGTLVTVSA
# VL: NIVMTQSPSSMSASLGDRITITCQATQDIVKNLNWYQQKPGKPPSFLIYYTTELAEGVPSRFSGSGSGSDYSLTISNLESEDFADYYCLQFYEFPPTFGAGTKLELKR
# notes: Mouse-derived anti-hROR1 mAb, detected with anti-mouse IgG; also called UC-102 mAb
# B2: UC-107 (antibody, V domains shown)
# VH: QIQLVQSGPELKKPGETVKISCKASGYTFTNYPIHWVKQAPGKGLKWMGWINTYSGVPTYADDFKGRFAFSLETSANTAYLQLNNLRNEDMATYFCARGDSSLFDYWGQGTTLTVSS
# VL: DVQMIQSPSSLSASLGERVSLTCRASQEISGYLIWLQQKPDGTITRLIYAASTLDSGVPKRFSGSRSGSDYSLTISSLESEDFADYYCLQYTSYPLTFGAGTKLELKR
# notes: Mouse-derived anti-hROR1 mAb, detected with anti-mouse IgG; also called UC-107 mAb
# B3: UC-103 (antibody, V domains shown)
# VH: EIQLQQSGPVLVKPGASVKVSCKASGYAFTAYNIHWVRQSHGKRLEWIGSFDPYDGGSSYNQKFKDKATLTVDKSSTTAYMHLNSLTSEDSAVYYCARGWYYFDYWGHGTTLTVSS
# VL: DVQITQSPSYLAASPGETITINCRASKSISKYLAWYQEKPGKTNKLLIYSGSTLQSGIPSRFRGSGSGTDFTLTISSLEPEDFAMYYCQQHDESPYTFGEGTKLEIKR
# notes: Mouse-derived anti-hROR1 mAb, detected with anti-mouse IgG; also called UC-103 mAb
# B4: UC-104 (antibody, V domains shown)
# VH: EVQLLETGGGLVQPGGSRKLSCAASGFTFSNYGMHWVRQAPGKGLEWVAHISRYSDTIYYADAVKGRFTISRDNAKNTLFLQMTTLRSEDTAIYYCTSAMDYWGQGTSVTVSS
# VL: DIQMTQTTSSLSASLGDRVTISCRASQDISNYLNWFQQKPDGTIKLLIYYTSRLHSGVPSRFSGSGSGTDYSLTISNLEQEDIATYFCQQGNTLPFTFGSGTKLEIKR
# notes: Mouse-derived anti-hROR1 mAb, detected with anti-mouse IgG; also called UC-104 mAb
# B5: UC-105 (antibody, V domains shown)
# VH: EVKLVESGGGLVQPGGSRKLSCAASGFTFSSYGMHWIRQTPDKGLEWVAYISSNSDHIFYTDTVKGRFTISRDNAKNTLFLQMTSLRSEDTAMYYCASRMDYWGQGTSVTVSS
# VL: B4 VL with Y32H, F36Y, I44V, E81G, N92S, F96Y, S100G
# notes: Mouse-derived anti-hROR1 mAb, detected with anti-mouse IgG
# B6: UC-101 (antibody, V domains shown)
# VH: EVQLLETGGGLVQPGGSRKLSCVASGFSFSSYGMHWVRQAPEKGLEWVAYIGGTSNTIYFADTVKGRFTISRDNAKNTLFLQMASLRSEDTAMYYCARTNLLGMDYWGQGTSVTVSS
# VL: QIVLTQSPTIMSASPGEKVTMTCSASSSVSDMYWYQQKPGSSPRLLIYDTSNLASGVPVRFSGSGSGTSYSLTISRMEAEDAATYYCQQWISYTFGGGTKLEIKR
# notes: Mouse-derived anti-hROR1 mAb, detected with anti-mouse IgG; also called UC-101 mAb
# B7: UC-106 (antibody, V domains shown)
# VH: B2 VH with N31Y, L83I
# VL: B2 VL with D1G, V2H, I5T, T45K, D55N
# notes: as for B5
# Target: T1, extracellular domain of human ROR1 (human, UniProt Q01973 30-406)
# T1 construct: also called hROR1; hROR1 extracellular recombinant protein
# Experiment: ELISA screening
# T1 sequence (Q01973 30-406 limits assumed): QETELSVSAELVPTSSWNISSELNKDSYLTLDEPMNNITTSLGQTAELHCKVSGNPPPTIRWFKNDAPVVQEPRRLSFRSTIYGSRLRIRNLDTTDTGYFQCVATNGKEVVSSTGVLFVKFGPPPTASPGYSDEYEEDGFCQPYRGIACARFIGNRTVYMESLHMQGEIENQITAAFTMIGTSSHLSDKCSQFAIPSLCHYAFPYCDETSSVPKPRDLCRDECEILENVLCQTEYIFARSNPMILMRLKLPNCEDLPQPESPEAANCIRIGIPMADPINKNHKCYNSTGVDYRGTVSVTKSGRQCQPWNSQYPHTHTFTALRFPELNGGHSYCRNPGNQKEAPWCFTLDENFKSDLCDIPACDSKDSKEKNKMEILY
row,binding result,Binder
1,binds,B1
2,binds,B2
3,binds,B3
4,binds,B4
5,binds,B5
6,binds,B6

# Target: T1, extracellular domain of human ROR1
# Experiment: blot, non-denaturing gel
# From the text: (§1) Schematics of the chimeric constructs of the extracellular portion of ROR1 used to map the domain of hROR1 bound by each of the mAb in this disclosure. The dark regions of each construct indicate hROR1, light portions denote regions of mROR1, and hatched portions indicate deleted regions. Arrows mark the boundaries between the mouse and hROR1 regions for constructs #5, #6, #13 and #14, which depict the first 160 amino acids of the extracellular region that includes the Ig-like domain. The amino acids that differ between human and mROR1 are indicated by the single letter abbreviation at that position. (B) Each of these recombinant proteins were separated in non-denaturing polyacrylamide gel, transferred onto nylon, probed with the anti-hROR1 mAb indicated on the left, and detected with an anti-mouse IgG antibody conjugated with horse radish peroxidase. […] None of the antibody bind to mROR1.
row,binding result,Binder
1,binds,B7

# Target: T2, hROR1 with a single amino acid substitution at position 138 (glutamic acid to lysine) (human, UniProt Q01973 30-406)
# T2 construct: Recombinant mutant of the hROR1 extracellular domain; also called hROR1 E138K
# Experiment: binding to point-mutated hROR1
# T2 sequence (Q01973 30-406 E138K limits assumed): as the sequence (Q01973 30-406 limits assumed) above, with E109K counted along it
row,binding result,Binder
1,no binding,B1
2,no binding,B3
3,no binding,B4
4,no binding,B5
5,no binding,B6

# Target: T3, hROR1 with a single amino acid substitution at position 346 (threonine to serine) (human, UniProt Q01973 30-406)
# T3 construct: Recombinant mutant of the hROR1 extracellular domain; also called hROR1 T346S
# Experiment: binding to point-mutated hROR1
# T3 sequence (Q01973 30-406 T346S limits assumed): as the sequence (Q01973 30-406 limits assumed) above, with T317S counted along it
row,binding result,Binder
1,no binding,B2

# Target: T3, hROR1 with a single amino acid …
# Experiment: binding to point-mutated hROR1; blot in FIG. 6
# From the text: Neither of the antibody reacts with mROR1 protein. […] We generated recombinant hROR1 proteins having either the mouse or human amino acid residue at this position only.
row,binding result,Binder
1,no binding,B7

# Target: T4, extracellular domain of mouse ROR1 (mouse, UniProt Q9Z139 30-406)
# T4 construct: also called mROR1; mROR1 protein
# Experiment: blot of recombinant protein, non-denaturing gel
# From the text: as §1
# T4 sequence (Q9Z139 30-406 limits assumed): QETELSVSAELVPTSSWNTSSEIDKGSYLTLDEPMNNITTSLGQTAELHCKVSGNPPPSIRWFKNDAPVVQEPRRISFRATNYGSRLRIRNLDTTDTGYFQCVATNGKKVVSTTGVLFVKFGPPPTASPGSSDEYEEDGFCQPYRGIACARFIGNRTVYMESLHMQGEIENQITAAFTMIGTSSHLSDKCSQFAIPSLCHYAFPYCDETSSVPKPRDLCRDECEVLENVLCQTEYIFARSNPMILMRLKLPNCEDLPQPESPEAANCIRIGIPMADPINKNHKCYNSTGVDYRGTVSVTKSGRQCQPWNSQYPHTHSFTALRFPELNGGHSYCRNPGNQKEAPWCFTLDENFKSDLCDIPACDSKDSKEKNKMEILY
row,binding result,Binder
1,no binding,B1
2,no binding,B7
3,no binding,B2
4,no binding,B3
5,no binding,B4
6,no binding,B5
7,no binding,B6
